US20030091990A1, “Methods and compositions involving thymidine phosphorylase as a marker for HIV infection, aids progression, and drug resistance” (priority 2001, published 2003)

Test system: resting CD4+ T lymphocytes
Test: Affymetrix GeneChip Expression Analysis of resting CD4+ T lymphocytes
Type: cell-based
Conditions: incubated 3 hrs at 37° C.; Human Genome U95A chips; fold changes from +2.0 to -2.0 removed; comparison with Mock control
Experimental: To investigate the changes in RNA expression of resting CD4+ T lymphocytes by HIV-1, Affymetrix GeneChip® Expression Analysis was done. Purified resting CD4+ T lymphocytes (purity of >98%) prepared from a healthy donor by StemCell™ magnetic column technique were incubated with HIV-1213 ((M.O.I. 0.5-1), IL-16 (10 ng/ml), or MHC II peptide (50 μM, RK1) in a 37° C. humidified 5% CO2 incubator for 3 hrs). Then, total cytoplasmic RNA was extracted by using RNA isolation kit (Qiagen) according to the manufacturer's instructions. Isolated RNA was applied on the Human Genome U95A chips, containing 12,626 full-length genes (Affymetrix, Santa Clara, Calif.). Data were generated from hybridization intensities measured on GeneChip expression probe arrays and analyzed by GeneChip software provided by Affymetrix. In order to compare gene expression levels between two samples (Mock, HIV213, IL-16 and MHC II peptide), Comparison Analysis was performed on data from two separate probe array experiments by determining the relative changes in abundance for each transcript. All moderate increase, moderate decrease and no change were removed. All fold changes from +2.0 to −2.0 were also removed. […] TP (PDECGF) was one of the molecules that have shown great change in its mRNA level when CD4 T cells were signalled with HIV (48 fold change). […]

B1: IL-16: IL-16 (10 ng/ml) incubated with resting CD4+ T lymphocytes (protein, UniProt Q14005 1212-1332, looked up)
Interleukin-16: SAASASAASDVSVESTAEATVCTVTLEKMSAGLGFSLEGGKGSLHGDKPLTINRIFKGAASEQSETVQPGDEILQLGGTAMQGLTRFEAWNIIKALPDGPVTIVIRRKSLQSKETTAAGDS
With B1 the “genes changed vs. Mock” value was 84 genes.
